US20190276499A1, “Protein VII Fragments and Methods of Use Thereof for the Treatment of Inflammatory Disorders” (priority 2016, published 2019)
“Also recorded” adds a separate entry of the source.

Legend:
HMGB2 = biological target: T1, HMGB2 (Homo sapiens, UniProt P26583); test: Release assay of HMGB2 in THP-1 cells; type: cell-based; settings: PMA-treated THP-1 cells, LPS plus nigericin
T1 construct: endogenous in cells; host or cells: THP-1 (PMA-differentiated)
T1 sequence (P26583 1-209): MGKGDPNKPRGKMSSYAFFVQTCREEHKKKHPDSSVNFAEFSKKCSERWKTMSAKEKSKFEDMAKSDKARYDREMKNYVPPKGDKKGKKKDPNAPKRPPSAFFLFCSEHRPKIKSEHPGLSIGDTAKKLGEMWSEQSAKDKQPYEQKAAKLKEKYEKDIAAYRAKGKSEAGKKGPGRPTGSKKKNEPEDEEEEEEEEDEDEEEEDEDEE
Method: (§1) THP-1 cells were seeded at a density of 2×10^5 cells per well in a 24-well plate, and stimulated into macrophage-like cells by addition of 10 ng/mL PMA for 48 hours. Cells were washed in PBS and transduced with recombinant adenovirus vectors expressing only GFP or protein VII-GFP such that >90% of cells were GFP positive. At 48 hours post transduction, cells were washed and 200 μL of serum free RPMI was added. To stimulate the inflammasome, LPS (Sigma-Aldrich L2880) with a final concentration of 0.5 μg/mL was added to wells and incubated for 2 hours, then nigericin (Sigma-Aldrich N7143) was added with a final concentration of 10 μM for 1 hour. Supernatants were collected and proteins precipitated overnight at 4° C. with a final concentration of 20% trichloroacetic acid (Sigma), washed with acetone, dried, and resuspended in 1×sample buffer with reducing agent (Invitrogen). For ELISA analysis, supernatants were harvested directly and HMGB1 content was detected by the manufacturer's instructions (Chondrex 6010). Cells were also harvested by the addition of 1×sample buffer with reducing agent (Invitrogen) and boiled. Supernatants and lysates were analyzed together by western blot.

HMGB1 [1] = biological target: T2, HMGB1 (Homo sapiens, UniProt P09429); test: Release assay of HMGB1 in THP-1 cells; type: cell-based; parameters: endogenous in cells; settings: PMA-treated THP-1 cells, LPS plus nigericin
T2 sequence (P09429 1-215): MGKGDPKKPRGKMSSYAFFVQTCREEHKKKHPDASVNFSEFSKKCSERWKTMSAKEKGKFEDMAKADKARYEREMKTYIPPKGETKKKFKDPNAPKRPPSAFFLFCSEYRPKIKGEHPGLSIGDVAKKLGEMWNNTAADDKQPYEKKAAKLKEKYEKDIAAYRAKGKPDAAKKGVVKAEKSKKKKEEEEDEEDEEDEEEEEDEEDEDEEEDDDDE
Method: as §1

nucleosomes = test: Nucleosome in vitro binding and MNase digestion assays
Method: Gel shift and MNase digestion assays were carried out as described (Falk et al. (2015) Science 348:699-703; Hasson et al. (2013) Nat. Struct. Mol. Biol., 20:687-695; Sekulic et al. (2010) Nature 467:347-351). Briefly, nucleosomes were reconstituted by incubating purified recombinant histones with ‘601’ DNA of either 195 or 147 bp over a series of dialysis. Recombinant protein VII-His was then combined with nucleosomes at various molar ratios, incubated at room temperature for 15 minutes, and analyzed by native gel electrophoresis. Complexes were also digested with MNase (Affymetrix) by addition of 1 unit per μg of DNA for 147 bp nucleosome experiments and 0.1 unit per μg of DNA for 195 bp nucleosome experiments, incubated at 22° C. for varying amounts of time followed by the addition of EGTA and guanidine thiocyanate to stop the reaction. The DNA fragments were then purified using a MinElute PCR purification kit (Qiagen) and analyzed on an Agilent 2100 Bioanalyzer as described (Falk et al. (2015) Science 348:699-703).

HMGB1 [2] = biological target: T2, HMGB1; test: Precision cut lung slice (PCLS) immunofluorescence; type: cell-based; parameters: tissue National Disease Research Interchange (NDRI); host or cells: human precision cut lung slices; settings: PCLS from human donors
Method: PCLS were obtained and prepared as described (Cooper et al. (2008) J. Allergy Clin. Immunol., 122:734-740; Koziol-White et al. (2011) Expert Rev. Respir. Med., 5:767-777). De-identified human lung tissue from donors was obtained from the National Disease Research Interchange (NDRI), Philadelphia, Pa. Samples were infected with 10^8 pfu of Ad5 per slice or 10^9 GC of rAd VII-GFP for 24 hours. Samples were fixed in 4% PFA at room temperature for 15 minutes and washed three times in PBS. Samples were permiabilized with 0.5% Triton X and washed twice more in PBS. Samples were then incubated with 3% BSA and 0.03% Triton X in PBS for 1 hour to block. Primary antibodies (DBP or HMGB1) were incubated in the same buffer for 1 hour and then samples were washed three times in PBS with 3% BSA, incubated with secondary antibodies and DAPI for 1 hour, and washed three more times. Whole slices were mounted on slides with mounting solution and imaged by confocal microscopy.

HMGB1 [3] = biological target: T2, HMGB1; test: Immunofluorescence of HMGB1 localization in A549 cells; type: cell-based; parameters: endogenous in cells; host or cells: A549
Method: Cells were grown on glass coverslips in 24-well plates and either infected or induced with doxycycline (0.2 μg/mL). Cells were harvested for immunofluorescence at the indicated time points, washed in phosphate-buffered saline (PBS), fixed in 4% paraformaldehyde for 15 minutes and post-fixed with 100% ice-cold methanol for 5 minutes. Coverslips were then blocked and stained as described (Lilley et al. (2011) PLoS Pathog., 7:e1002084) and mounted using ProLong Gold Antifade Reagent (Life Technologies). Immunofluorescence was visualized using a Zeiss LSM Confocal microscope and ZEN 2011 software. Images were processed using ImageJ and assembled with Adobe CS6. All scale bars show in the Figures are 10 μm unless otherwise stated.

B1: protein VII: mature protein VII of human adenovirus type 5 (SEQ ID NO:1), expressed in cells, mostly with C-terminal HA tag (protein)
chain: AKKRSDQHPVRVRGHYRAPWGAHKRGRTGRTTVDDAIDAVVEEARNYTPTPPPVSTVDAAIQTVVRGARRYAKMKRRRRRVARRHRRRPGTAAQRAAAALLNRARRTGRRAAMRAARRLAAGIVTVPPRSRRRAAAAAAAAISAMTQGRRGNVYWVRDSVSGLRVPVRTRPPRN
modifications: C-terminal HA tag; Human adenovirus 5
For B1, the HMGB2 in supernatants (HMGB2) was “reduced levels”, the HMGB1 in supernatants (HMGB1 [1]) was “reduced levels” and the “Protection from MNase digestion” value (nucleosomes; 147 bp nucleosome core particle) was “completely blocks digestion; also recorded: protects against MNase digestion”. For the same molecule, the “Nucleosome mobility on native gel electrophoresis” value (nucleosomes; 195 bp nucleosomes) was “changed nucleosome mobility”, the “Point at which MNase digestion of nucleosomal DNA pauses” value (nucleosomes; 195 bp nucleosomes) was 165 bp and the “Relocalization of endogenous HMGB1 in lung slices” value (HMGB1 [2]) was “sufficient to relocalize endogenous HMGB1”. For the same molecule, the “Relocalization of HMGB1 (immunofluorescence)” value (HMGB1 [3]) was “relocalization of HMGB1”.
